One may read the IC50 as the point on the concentration scale where inhibition reaches its midpoint. Low readings indicate greater potency, high ones weaker potency. Broadly, the Kd is the free concentration of one partner at which half of the binding sites on the other are occupied at equilibrium, for simple one-to-one binding. Higher therefore signals lower affinity.

Some results are limits rather than exact numbers.

Here are results for two substances from US20090124791A1.

The target in experiment [1] is B7.1/Ig fusion protein (human) (UniProt P33681). The experiment is described as follows: cell-based or functional assay.
Experiment [2] has the same target. The experiment can be described thus: competition of 125I-B7.1Ig binding to CD28 positive peripheral blood T lymphocytes.
For experiment [3], the target named is human B7.1 antigen (CD80), form not stated (human) (UniProt P33681). The experiment is described as follows: surface plasmon resonance.
The target in experiment [4] is human B7.1 antigen (CD80) on cells (human) (UniProt P33681). The experiment is described as follows: competition on B7.1 transfected CHO cells; competitor L307.4 (FIG. 8).
Chain of human B7.1 antigen (CD80) on cells (human) (P33681 35-288): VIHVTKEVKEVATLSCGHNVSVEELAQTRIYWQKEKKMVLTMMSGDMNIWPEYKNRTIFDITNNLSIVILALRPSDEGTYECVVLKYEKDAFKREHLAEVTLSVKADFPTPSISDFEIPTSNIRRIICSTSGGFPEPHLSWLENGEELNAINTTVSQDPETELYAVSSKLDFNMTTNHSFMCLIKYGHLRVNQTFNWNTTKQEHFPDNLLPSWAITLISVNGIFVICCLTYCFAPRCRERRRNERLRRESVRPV

Chain of B7.1/Ig fusion protein (human) (P33681 35-242): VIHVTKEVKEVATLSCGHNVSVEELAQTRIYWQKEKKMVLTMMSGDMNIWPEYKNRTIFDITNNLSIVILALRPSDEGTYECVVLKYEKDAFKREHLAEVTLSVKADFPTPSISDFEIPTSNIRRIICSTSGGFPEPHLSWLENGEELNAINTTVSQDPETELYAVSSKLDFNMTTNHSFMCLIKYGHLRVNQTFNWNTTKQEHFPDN
Chain of human B7.1 antigen (CD80), form not stated (human) (P33681 35-242 limits assumed): as the sequence (P33681 35-242) above

Regarding primatized 16C10 (IDEC-114) (antibody), in experiment [1], the concentration for equivalent blocking of IL-2 against CTLA-4Ig, beads anti-CD3/B7 8:1 is 10 fold and the inhibition of IL-2, CD4+ T cells with anti-CD3/B7-Ig beads (8:1) is 50 to 90%. In experiment [2], the half-maximal inhibitory concentration (IC50) was under 1 µg/mL. For the same substance, the dissociation constant Kd in experiment [3] was 4 nM.
For BB-1 murine anti-B7 antibody, the cross-reactivity (competition) with L307.4 in experiment [4] came to 50%.
